B1: NEFL: human host interactor protein, Gene ID 4747, expressed from transfected ORF vector (protein)
chain: MSSFSYEPYYSTSYKRRYVETPRVHISSVRSGYSTARSAYSSYSAPVSSSLSVRRSYSSSSGSLMPSLENLDLSQVAAISNDLKSIRTQEKAQLQDLNDRFASFIERVHELEQQNKVLEAELLVLRQKHSEPSRFRALYEQEIRDLRLAAEDATNEKQALQGEREGLEETLRNLQARYEEEVLSREDAEGRLMEARKGADEAALARAELEKRIDSLMDEISFLKKVHEEEIAELQAQIQYAQISVEMDVTKPDLSAALKDIRAQYEKLAAKNMQNAEEWFKSRFTVLTESAAKNTDAVRAAKDEVSESRRLLKAKTLEIEACRGMNEALEKQLQELEDKQNADISAMQDTINKLENELRTTKSEMARYLKEYQDLLNVKMALDIEIAAYRKLLEGEETRLSFTSVGSITSGYSQSSQVFGRSAYGGLQTSSYLMSTRSFPSYYTSHVQEEQIEVEETIEAAKAEEAKDEPPSEGEAEEEEKDKEEAEEEEAAEEEEAAKEESEEAKEEEEGGEGEEGEETKEAEEEEKKVEGAGEEQAAKKKD
B2: KIF9: human host interactor protein, Gene ID 64147, expressed from transfected ORF vector (protein)
chain: MGTRKKVHAFVRVKPTDDFAHEMIRYGDDKRSIDIHLKKDIRRGVVNNQQTDWSFKLDGVLHDASQDLVYETVAKDVVSQALDGYNGTIMCYGQTGAGKTYTMMGATENYKHRGILPRALQQVFRMIEERPTHAITVRVSYLEIYNESLFDLLSTLPYVGPSVTPMTIVENPQGVFIKGLSVHLTSQEEDAFSLLFEGETNRIIASHTMNKNSSRSHCIFTIYLEAHSRTLSEEKYITSKINLVDLAGSERLGKSGSEGQVLKEATYINKSLSFLEQAIIALGDQKRDHIPFRQCKLTHALKDSLGGNCNMVLVTNIYGEAAQLEETLSSLRFASRMKLVTTEPAINEKYDAERMVKNLEKELALLKQELAIHDSLTNRTFVTYDPMDEIQIAEINSQVRRYLEGTLDEIDIISLRQIKEVFNQFRVVLSQQEQEVESTLRRKYTLIDRNDFAAISAIQKAGLVDVDGHLVGEPEGQNFGLGVAPFSTKPGKKAKSKKTFKEPLSSLARKEGASSPVNGKDLDYVSTSKTQLVPSSKDGDVKDMLSRDRETSSIEPLPSDSPKEELRPIRPDTPPSKPVAFEEFKNEQGSEINRIFKENKSILNERRKRASETTQHINAIKREIDVTKEALNFQKSLREKQGKYENKGLMIIDEEEFLLILKLKDLKKQYRSEYQDLRDLRAEIQYCQHLVDQCRHRLLMEFDIWYNESFVIPEDMQMALKPGGSIRPGMVPVNRIVSLGEDDQDKFSQLQQRVLPEGPDSISFYNAKVKIEQKHNYLKTMMGLQQAHRK
B3: MYEF2: human host interactor protein, Gene ID 50804, expressed from transfected ORF vector (protein)
chain: MADANKAEVPGATGGDSPHLQPAEPPGEPRREPHPAEAEKQQPQHSSSSNGVKMENDESAKEEKSDLKEKSTGSKKANRFHPYSKDKNSGAGEKKGPNRNRVFISNIPYDMKWQAIKDLMREKVGEVTYVELFKDAEGKSRGCGVVEFKDEEFVKKALETMNKYDLSGRPLNIKEDPDGENARRALQRTGGSFPGGHVPDMGSGLMNLPPSILNNPNIPPEVISNLQAGRLGSTIFVANLDFKVGWKKLKEVFSIAGTVKRADIKEDKDGKSRGMGTVTFEQAIEAVQAISMFNGQFLFDRPMHVKMDDKSVPHEEYRSHDGKTPQLPRGLGGIGMGLGPGGQPISASQLNIGGVMGNLGPGGMGMDGPGFGGMNRIGGGIGFGGLEAMNSMGGFGGVGRMGELYRGAMTSSMERDFGRGDIGINQGFGDSFGRLGSAMIGGFAGRIGSSNMGPVGSGISGGMGSMNSVTGGMGMGLDRMSSSFDRMGPGIGAILERSIDMDRGFLSGPMGSGMRERIGSKGNQIFVRNLPFDLTWQKLKEKFSQCGHVMFAEIKMENGKSKGCGTVRFDSPESAEKACRIMNGIKISGREIDVRLDRNA
B4: RNPS1: human host interactor protein, Gene ID 10921, expressed from transfected ORF vector (protein)
chain: MDLSGVKKKSLLGVKENNKKSSTRAPSPTKRKDRSDEKSKDRSKDKGATKESSEKDRGRDKTRKRRSASSGSSSTRSRSSSTSSSGSSTSTGSSSGSSSSSASSRSGSSSTSRSSSSSSSSGSPSPSRRRHDNRRRSRSKSKPPKRDEKERKRRSPSPKPTKVHIGRLTRNVTKDHIMEIFSTYGKIKMIDMPVERMHPHLSKGYAYVEFENPDEAEKALKHMDGGQIDGQEITATAVLAPWPRPPPRRFSPPRRMLPPPPMWRRSPPRMRRRSRSPRRRSPVRRRSRSPGRRRHRSRSSSNSSR
B5: MAD1L1: human host interactor protein, Gene ID 8379, expressed from transfected ORF vector (protein)
chain: MEDLGENTMVLSTLRSLNNFISQRVEGGSGLDISTSAPGSLQMQYQQSMQLEERAEQIRSKSHLIQVEREKMQMELSHKRARVELERAASTSARNYEREVDRNQELLTRIRQLQEREAGAEEKMQEQLERNRQCQQNLDAASKRLREKEDSLAQAGETINALKGRISELQWSVMDQEMRVKRLESEKQELQEQLDLQHKKCQEANQKIQELQASQEARADHEQQIKDLEQKLSLQEQDAAIVKNMKSELVRLPRLERELKQLREESAHLREMRETNGLLQEELEGLQRKLGRQEKMQETLVGLELENERLLAKLQSWERLDQTMGLSIRTPEDLSRFVVELQQRELALKDKNSAVTSSARGLEKARQQLQEELRQVSGQLLEERKKRETHEALARRLQKRVLLLTKERDGMRAILGSYDSELTPAEYSPQLTRRMREAEDMVQKVHSHSAEMEAQLSQALEELGGQKQRADMLEMELKMLKSQSSSAEQSFLFSREEADTLRLKVEELEGERSRLEEEKRMLEAQLERRALQGDYDQSRTKVLHMSLNPTSVARQRLREDHSQLQAECERLRGLLRAMERGGTVPADLEAAAASLPSSKEVAELKKQVESAELKNQRLKEVFQTKIQEFRKACYTLTGYQIDITTENQYRLTSLYAEHPGDCLIFKATSPSGSKMQLLETEFSHTVGELIEVHLRRQDSIPAFLSSLTLELFSRQTVA
B6: LENG1: human host interactor protein, Gene ID 79165, expressed from transfected ORF vector (protein)
chain: MNILPKKSWHVRNKDNVARVRRDEAQAREEEKERERRVLLAQQEARTEFLRKKARHQNSLPELEAAEAGAPGSGPVDLFRELLEEGKGVIRGNKEYKEEKRQEKERQEKALGILTYLGQSAAEAQTQPPWYQLPPGRGGPPPGPAPDEKIKSRLDPLREMQKHLGKKRQHGGDEGSRSRKEKEGSEKQRPKEPPSLDQLRAERLRREAAERSRAEALLARVQGRALQEGQPEEDETDDRRRRYNSQFNPQLARRPRQQDPHLTH
B7: NIF3L1: human host interactor protein, Gene ID 60491, expressed from transfected ORF vector (protein)
chain: MLSSCVRPVPTTVRFVDSLICNSSRSFMDLKALLSSLNDFASLSFAESWDNVGLLVEPSPPHTVNTLFLTNDLTEEVMEEVLQKKADLILSYHPPIFRPMKRITWNTWKERLVIRALENRVGIYSPHTAYDAAPQGVNNWLAKGLGACTSRPIHPSKAPNYPTEGNHRVEFNVNYTQDLDKVMSAVKGIDGVSVTSFSARTGNEEQTRINLNCTQKALMQVVDFLSRNKQLYQKTEILSLEKPLLLHTGMGRLCTLDESVSLATMIDRIKRHLKLSHIRLALGVGRTLESQVKVVALCAGSGSSVLQGVEADLYLTGEMSHHDTLDAASQGINVILCEHSNTERGFLSDLRDMLDSHLENKINIILSETDRDPLQVV
B8: KLC3: human host interactor protein, Gene ID 147700, expressed from transfected ORF vector (protein)
chain: MSVQVAAPGSAGLGPERLSPEELVRQTRQVVQGLEALRAEHHGLAGHLAEALAGQGPAAGLEMLEEKQQVVSHSLEAIELGLGEAQVLLALSAHVGALEAEKQRLRSQARRLAQENVWLREELEETQRRLRASEESVAQLEEEKRHLEFLGQLRQYDPPAESQQSESPPRRDSLASLFPSEEEERKGPEAAGAAAAQQGGYEIPARLRTLHNLVIQYAGQGRYEVAVPLCRQALEDLERSSGHCHPDVATMLNILALVYRDQNKYKEATDLLHDALQIREQTLGPEHPAVAATLNNLAVLYGKRGRYREAEPLCQRALEIREKVLGADHPDVAKQLNNLALLCQNQGKFEDVERHYARALSIYEALGGPHDPNVAKTKNNLASAYLKQNKYQQAEELYKEILHKEDLPAPLGAPNTGTAGDAEQALRRSSSLSKIRESIRRGSEKLVSRLRGEAAAGAAGMKRAMSLNTLNVDAPRAPGTQFPSWHLDKAPRTLSASTQDLSPH
B9: SPG21: human host interactor protein, Gene ID 51324, expressed from transfected ORF vector (protein)
chain: MGEIKVSPDYNWFRGTVPLKKIIVDDDDSKIWSLYDAGPRSIRCPLIFLPPVSGTADVFFRQILALTGWGYRVIALQYPVYWDHLEFCDGFRKLLDHLQLDKVHLFGASLGGFLAQKFAEYTHKSPRVHSLILCNSFSDTSIFNQTWTANSFWLMPAFMLKKIVLGNFSSGPVDPMMADAIDFMVDRLESLGQSELASRLTLNCQNSYVEPHKIRDIPVTIMDVFDQSALSTEAKEEMYKLYPNARRAHLKTGGNFPYLCRSAEVNLYVQIHLLQFHGTKYAAIDPSMVSAEELEVQKGSLGISQEEQ

This assay relates to HTLV-1 LTR promoter transactivation by HTLV-1 Tax. Description: Transactivation assay, HTLV-1 LTR luciferase reporter with HTLV-1 Tax. In kind it is cell-based. The settings on record: HEK293 cells co-transfected with pHTLV1LTR-Luc, HTLV-1 Tax and the human ORF; relative luciferase activity 24 h post-transfection; positive if >=2 or <=0.5 and p<0.05. An excerpt: Twenty-four hours post-transfection, cells were washed three times with PBS, lysed and luciferase activities determined from two independent transfection experiments in triplicate. We computed a paired t-test to assess the difference of the means between samples with and without the human interactor. For a trial to be considered positive, the relative luciferase activities has to be >=2 or <=0.5, and the p-value of the t-test<0.05.
Expression vectors encoding human ORFs and HIV-1 Tat or HTLV-1 Tax proteins were tested in a transactivation reporter assay against reporter plasmids harboring HIV-1 or HTLV-1 viral promoter sequences cloned upstream of the luciferase reporter gene. […] Wherever not expressly specified, constructs used herein were generally made by sub-cloning entry clones from the ORFeome V3.1 into suitable destination vectors.
As for B1, the HTLV_LTR transactiv. is 0.45 fold change. In the case of B2 it was 0.37 fold change. In turn, B3 gave an HTLV_LTR transactiv. of 2.53 fold change.

As to B4, the HTLV_LTR transactiv. worked out at 11.12 fold change. The figure for B5 is 0.20 fold change; for B6 it is 0.34 fold change. In the case of B7 it was 0.39 fold change; in that of B8, 0.31 fold change; in that of B9, 0.21 fold change.

(Values after patent publication US20120090043A1, “TARGETS FOR RETROVIRUS ASSOCIATED DISEASES” (priority 2009, published 2012).)
